# B1: Zinc finger protein GLI1 (Homo sapiens), P08151 (parent)
# chain: MFNSMTPPPISSYGEPCCLRPLPSQGAPSVGTEGLSGPPFCHQANLMSGPHSYGPARETNSCTEGPLFSSPRSAVKLTKKRALSISPLSDASLDLQTVIRTSPSSLVAFINSRCTSPGGSYGHLSIGTMSPSLGFPAQMNHQKGPSPSFGVQPCGPHDSARGGMIPHPQSRGPFPTCQLKSELDMLVGKCREEPLEGDMSSPNSTGIQDPLLGMLDGREDLEREEKREPESVYETDCRWDGCSQEFDSQEQLVHHINSEHIHGERKEFVCHWGGCSRELRPFKAQYMLVVHMRRHTGEKPHKCTFEGCRKSYSRLENLKTHLRSHTGEKPYMCEHEGCSKAFSNASDRAKHQNRTHSNEKPYVCKLPGCTKRYTDPSSLRKHVKTVHGPDAHVTKRHRGDGPLPRAPSISTVEPKREREGGPIREESRLTVPEGAMKPQPSPGAQSSCSSDHSPAGSAANTDSGVEMTGNAGGSTEDLSSLDEGPCIAGTGLSTLRRLENLRLDQLHQLRPIGTRGLKLPSLSHTGTTVSRRVGPPVSLERRSSSSSSISSAYTVSRRSSLASPFPPGSPPENGASSLPGLMPAQHYLLRARYASARGGGTSPTAASSLDRIGGLPMPPWRSRAEYPGYNPNAGVTRRASDPAQAADRPAPARVQRFKSLGCVHTPPTVAGGGQNFDPYLPTSVYSPQPPSITENAAMDARGLQEEPEVGTSMVGSGLNPYMDFPPTDTLGYGGPEGAAAEPYGARGPGSLPLGPGPPTNYGPNPCPQQASYPDPTQETWGEFPSHSGLYPGPKALGGTYSQCPRLEHYGQVQVKPEQGCPVGSDSTGLAPCLNAHPSEGPPHPQPLFSHYPQPSPPQYLQSGPYTQPPPDYLPSEPRPCLDFDSPTHSTGQLKAQLVCNYVQSQQELLWEGGGREDAPAQEPSYQSPKFLGGSQVSPSRAKAPVNTYGPGFGPNLPNHKSGSYPTPSPCHENFVVGANRASHRAAAPPRLLPPLPTCYGPLKVGGTNPSCGHPEVGRLGGGPALYPPPEGQVCNPLDSLDLDNTQLDFVAILDEPQGLSPPPSHDQRGSSGHTPPPSGPPNMAVGNMSVLLRSLPGETEFLNSSA
# partner: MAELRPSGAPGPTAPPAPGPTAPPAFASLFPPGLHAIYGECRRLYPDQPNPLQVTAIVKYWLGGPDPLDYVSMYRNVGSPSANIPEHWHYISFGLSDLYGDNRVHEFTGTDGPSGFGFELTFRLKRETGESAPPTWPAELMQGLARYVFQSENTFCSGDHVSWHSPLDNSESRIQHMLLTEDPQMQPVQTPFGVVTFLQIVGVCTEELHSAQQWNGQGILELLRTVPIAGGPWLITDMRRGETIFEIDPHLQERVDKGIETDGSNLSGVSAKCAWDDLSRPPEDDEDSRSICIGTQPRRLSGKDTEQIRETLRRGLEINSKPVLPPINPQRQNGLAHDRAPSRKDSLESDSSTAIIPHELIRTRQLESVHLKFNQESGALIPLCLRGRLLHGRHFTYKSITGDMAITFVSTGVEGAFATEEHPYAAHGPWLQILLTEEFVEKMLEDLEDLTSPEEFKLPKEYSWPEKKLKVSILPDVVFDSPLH
# B2: Zinc finger protein GLI1 (Homo sapiens), P08151 (parent)
# chain: B1 chain
# Variants of: B1
# Conditions: with sufu_human SUFU
row,Variant,effect of a mutation on the interaction
1,S84E,decreasing interaction

# Variants of: B2
# Conditions: with RPS6KB1, P23443-2
# RPS6KB1, P23443-2, sequence (P23443 24-525): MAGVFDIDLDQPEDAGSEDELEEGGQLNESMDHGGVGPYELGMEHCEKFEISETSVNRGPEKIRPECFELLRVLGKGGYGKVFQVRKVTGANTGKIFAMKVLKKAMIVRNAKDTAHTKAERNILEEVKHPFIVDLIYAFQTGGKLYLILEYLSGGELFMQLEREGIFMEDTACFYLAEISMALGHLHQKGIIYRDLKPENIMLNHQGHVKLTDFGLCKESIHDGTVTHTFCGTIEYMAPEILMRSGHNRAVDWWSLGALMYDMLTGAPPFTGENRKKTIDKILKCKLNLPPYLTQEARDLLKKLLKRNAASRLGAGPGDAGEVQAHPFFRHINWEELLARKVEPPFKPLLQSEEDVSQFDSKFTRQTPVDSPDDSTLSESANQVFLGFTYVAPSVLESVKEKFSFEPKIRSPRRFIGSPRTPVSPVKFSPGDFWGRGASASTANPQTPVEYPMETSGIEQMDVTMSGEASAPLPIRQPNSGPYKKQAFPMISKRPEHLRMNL
row,Variant,effect of a mutation on the interaction
1,S84A,disrupting interaction

# From IntAct's records for PubMed 22439934
